Results from patent US10100114B2, “Antibodies specific for TROP-2 and their uses” (RINAT NEUROSCIENCE CORP., priority 2011, dated 2018).

Assays:
[1] = target: T1, huTrop-2 (Homo sapiens, UniProt P09758); assay: Biacore SPR affinity of anti-Trop-2 mouse antibodies; assay type: binding; settings: mouse IgG captured by anti-mouse IgG; monomeric Trop-2 extracellular domain as analyte
T1 construct: Monomeric Trop-2 extracellular domain prepared from papain digestion of Trop-2-Fc fusion protein; Fc (cleaved yes); made in house
T1 sequence (P09758 27-274 limits assumed): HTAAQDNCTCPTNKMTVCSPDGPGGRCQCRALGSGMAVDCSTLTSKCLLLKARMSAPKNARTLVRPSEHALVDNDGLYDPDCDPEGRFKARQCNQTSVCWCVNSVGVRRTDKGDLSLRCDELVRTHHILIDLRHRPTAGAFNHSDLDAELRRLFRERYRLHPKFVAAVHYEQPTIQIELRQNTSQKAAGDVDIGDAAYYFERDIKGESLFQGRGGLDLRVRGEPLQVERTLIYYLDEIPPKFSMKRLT
Method: The affinities of anti-Trop-2 mouse antibodies generated from hybridomas were measured on a surface plasmon resonance Biacore™ 2000 or 3000 biosensor equipped with a research-grade CM5 sensor chip (Biacore™ AB, Uppsala, Sweden—now GE Healthcare). Anti-mouse IgG was first amine coupled to the CM5 sensor surface. Various anti-Trop-2 mouse IgGs were then captured by anti-mouse IgG. Monomeric Trop-2 extracellular domain prepared from papain digestion of Trop-2-Fc fusion protein was then injected as the analyte at 3 fold dilution series. […]

[2] = test system: human Trop-2 domains swapped with Trop-1 (EpCAM) or mouse Trop-2 equivalent regions; assay: Domain mapping by domain swapping (Biacore); assay type: binding; settings: for Binding to Trop-2 domain hybrid, domain 1: domain 1 replaced; for Binding to Trop-2 domain hybrid, domain 2: domain 2 replaced; for Binding to Trop-2 domain hybrid, domain 3: domain 3 replaced; for Binding to Trop-2 domain hybrid, domain 4: domain 4 replaced
Method: Domain mapping was done by swapping the Trop-2 extracellular domains with either Trop-1 (EpCAM) or mouse Trop-2 equivalent regions. […] These hybrid proteins were expressed as human Fc fusion proteins in 293F cells. Binding of anti-Trop-2 antibodies to these domain hybrids were determined by Biacore. […] Table 5. Definition of different domains of Trop-2 can be found, e.g., in Chong et al., J. Biol. Chem. 276(8):5804-13, 2001.

[3] = target: T2, human Trop-1 (Homo sapiens, UniProt P16422, M115T); assay: Binding to human Trop-1; settings: recombinant mouse IgG2a
T2 sequence (P16422 24-314 M115T): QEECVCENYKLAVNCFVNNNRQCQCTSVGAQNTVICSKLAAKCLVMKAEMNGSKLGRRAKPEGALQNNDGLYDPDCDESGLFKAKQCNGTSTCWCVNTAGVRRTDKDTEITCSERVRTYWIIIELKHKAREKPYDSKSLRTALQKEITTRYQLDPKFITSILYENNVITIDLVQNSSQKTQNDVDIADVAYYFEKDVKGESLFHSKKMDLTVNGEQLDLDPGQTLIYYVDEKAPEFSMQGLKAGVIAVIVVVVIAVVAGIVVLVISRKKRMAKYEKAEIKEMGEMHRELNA

[4] = target: T3, mouse Trop-2 (Mus musculus, UniProt Q8BGV3); assay: Binding to mouse Trop-2; settings: recombinant mouse IgG2a
T3 sequence (Q8BGV3 25-317): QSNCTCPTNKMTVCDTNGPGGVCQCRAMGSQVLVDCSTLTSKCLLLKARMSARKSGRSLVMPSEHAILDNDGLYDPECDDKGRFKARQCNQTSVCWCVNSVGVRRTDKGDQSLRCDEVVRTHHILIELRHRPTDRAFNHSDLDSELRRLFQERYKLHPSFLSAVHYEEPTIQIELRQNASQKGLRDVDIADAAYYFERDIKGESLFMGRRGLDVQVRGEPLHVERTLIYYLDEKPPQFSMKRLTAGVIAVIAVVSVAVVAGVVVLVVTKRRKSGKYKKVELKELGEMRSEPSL

[5] = test system: A431 xenograft; assay: In vivo efficacy of anti-Trop-2 mouse IgGs, A431 xenograft model; design: species or system nu/nu mice; settings: 20 mg/kg once a week, 3 doses
Method: In vivo efficacy studies of anti-Trop-2 mouse IgGs were performed with target-expressing A431 xenograft model. Two million A431 epidermoid cancer cells were implanted subcutaneously into 5-8 weeks old nu/nu mice until the tumor sizes reached around 100 mm^3. Animals were randomized by tumor sizes and dosing was done through bolus tail vein injection. Anti-Trop-2 antibodies were expressed as recombinant mouse IgG2a antibodies from 293F transient expression. […] Tumor volume was measured twice a week by a caliper device and calculated with the following formula: Tumor volume=(length×width^2)/2. Studies were terminated before tumor volumes reached 2000 mm^3. TGI (% tumor growth inhibition) was determined as [1-tumor sizes (treatment group)/tumor size (control group)]×100.

[6] = test system: SW620 (Trop-2 −) cells; assay: Flow cytometry binding, SW620 cells; assay type: cell-based; settings: 1 ug antibody
Method: For A431 cell staining, 200,000 cells were incubated with 0.5 ug antibody in 100 uL binding buffer (PBS (Phosphate Buffered Saline)+0.5% BSA (Bovine Serum Albumin)), followed by incubation with Dylight488-conjugated goat anti-human (Fab′)2-specific secondary antibody from Jackson immunoresearch Laboratories (West Grove, Pa.). For Colo205 and SW620 cells, 300,000 cells were used with 1 ug of primary antibody, followed by AlexaFluor 647 anti-human (Fab′)2-specific secondary antibody from Jackson immunoresearch Laboratories (West Grove, Pa.).
Similar to Example 7a), binding of chimeric mouse and humanized anti-Trop-2 6G11 antibodies (expressed in human IgG1 subtype) were assessed on Trop-2 expressing (A431 and Colo205) and non-expressing (SW620) cells by flow cytometry. 300,000 cells were used with 1 ug of primary antibody, followed by AlexaFluor 647 anti-human (Fab′)2-specific secondary antibody.

[7] = test system: SW620 cells (Trop-2 non-expressing); assay: Cytotoxicity of ADCs (CellTiter-Glo), SW620; assay type: cell-based; settings: Table 13; SW620, Trop2 expression −; 96 hours; concentration of total Ab
Method: Target expressing (A431, BxPC3, CAPAN-2 and Colo205) or non-expressing (SW620) cells were seeded on white walled clear bottom plates at 2000 cells/well for 24 hours before treatment. Cells were treated with 4 fold serially diluted antibody-drug conjugates in triplicates. Cell viability was determined by CellTiter-Glo® Luminescent Cell Viability Assay 96 (Promega, Madison Wis.) 96 hours after treatment. Relative cell viability was determined as percentage of untreated control. IC50 was calculated by Prism software.
2-methylalanyl-N-[(3R,4S,5S)-3-methoxy-1-{(2S)-2-[(1R,2R)-1-methoxy-2-methyl-3-oxo-3-{[(1S)-2-phenyl-1-(1,3-thiazol-2-yl)ethyl]amino}propyl]pyrrolidin-1-yl}-5-methyl-1-oxoheptan-4-yl]-N-methyl-L-valinamide is a novel auristatin, as described in U.S. Application Nos. 61/561,255 and 61/676,423. Method of conjugating Trop-2 antibodies using transglutaminase tags is described in Example 9. Target expressing or non-expressing (SW620) cells were seeded on white walled clear bottom plates at 2000 (A431, BxPC3, NCI-H292, NCI-H1650, MDA-MB-468 and SW620), 2500 (Calu-3) or 3000 (OVCAR3 and SKBR3) cells per well for 24 hours before treatment. Cells were treated with 4 fold serially diluted antibody-drug conjugates in triplicates. Cell viability was determined by CellTiter-Glo® Luminescent Cell Viability Assay 96 (Promega, Madison, Wis.) 96 hours after treatment. Relative cell viability was determined as percentage of untreated control. IC50 was calculated by GraphPad Prism 5 software and expressed as concentration (nM) of total Ab.

[8] = test system: BxPC3 xenograft; assay: In vivo efficacy of humanized Trop-2 ADCs, pancreatic tumor BxPC3 xenograft model; design: species or system CB17/SCID mice; settings: single dose, tail vein; FIGS. 9A-9C
Method: In vivo efficacy studies of Trop-2 ADCs were performed with target-expressing BxPC3 xenograft model. Two million BxPC3 pancreatic cancer cells were implanted subcutaneously into 5-8 weeks old CB17/SCID mice until the tumor sizes reached between 300-400 mm^3. […] Tumor volume was measured once a week by a Caliper device and calculated with the following formula: Tumor volume=(length×width^2)/2. Studies were terminated before their tumor volumes reached 2000 mm^3.

[9] = target: T4, human Trop-2-hFc (Homo sapiens, UniProt P09758); assay: Biacore SPR affinity of chimeric and humanized 7E6 Fab, human Trop-2; assay type: binding; settings: recombinant Fab fragments injected over captured human Trop-2-hFc
T4 construct: Monomeric Trop-2 extracellular domain prepared from papain digestion of Trop-2-Fc fusion protein
T4 sequence (P09758 27-274 limits assumed): T1 sequence (P09758 27-274 limits assumed)
Text: (§1) The human Trop-2-hFc or cynomolgus monkey Trop-2-hFc proteins were captured on the CM5 EDA chip 37 sensor surface coupled with anti-human Fc.

[10] = test system: cynomolgus monkey Trop-2-hFc; assay: Biacore SPR affinity of chimeric and humanized 7E6 Fab, cynomolgus Trop-2; assay type: binding; settings: recombinant Fab fragments injected over captured cynomolgus monkey Trop-2-hFc
Text: as §1

[11] = target: T5, human Trop2-ECD (Homo sapiens, UniProt P09758); assay: Proteon XPR36 SPR of Fab/human Trop2-ECD interactions; assay type: binding; settings: amine-coupled Fab; monovalent human Trop2-ECD 6, 30 and 150 nM; 25° C., pH 7.4
T5 sequence (P09758 27-274 limits assumed): T1 sequence (P09758 27-274 limits assumed)
Method: Analysis of Fab/human Trop2-ECD (Extracellular Domain) interactions was performed using a Bio-Rad Proteon XPR36 Surface Plasmon Resonance (SPR) biosensor (Bio-Rad, Hercules, Calif.) equipped with a GLC sensor chip. The assay temperature was 25° C., and the assay buffer was 10 mM Sodium Phosphate, 150 mM NaCl, 0.05% Tween-20, pH 7.4. An array of amine-coupled Fabs was prepared using the methodology described in Abdiche et al. (Anal. Biochem., 411: 139-151 (2011)). In each analysis cycle, monovalent human Trop2-ECD antigen was flowed at 30 μL/min over the immobilized Fabs for 3 minutes followed by a buffer wash for 15 minutes to monitor dissociation of the Fab/Trop2 complex. The sensor surface was regenerated between analysis cycles, using three 18-second injections of a 2:1 mixture (by volume) of Pierce IgG Elution buffer:4 M NaCl (Pierce, Rockford, Ill.). Binding and regeneration cycles were repeated at human Trop2-ECD concentrations of 6, 30 and 150 nM. The resulting data were fit to a 1:1 Langmuir binding model using the Proteon evaluation software.

[12] = test system: Colo205 xenograft; assay: In vivo efficacy of Trop-2 ADCs, colorectal tumor Colo205 xenograft model; design: species or system nu/nu mice; settings: single dose of 6 mg/kg, tail vein; FIG. 10
Method: In vivo efficacy study of Trop-2 ADCs was performed with target-expressing colo205 xenograft model. Three millions of colo205 colon cancer cells were implanted subcutaneously into 5-8 weeks old nu/nu mice until the tumor sizes reached ˜300 mm^3. […] Tumor volume is measured once a week by a Caliper device and calculated with the following formula: Tumor volume=(length×width^2)/2. Studies were terminated before their tumor volumes reached 2000 mm^3.

B1: 6G11: anti-Trop-2 mouse antibody, VL SEQ ID NO: 8, VH SEQ ID NO: 9; also used as chimeric human IgG1 (antibody, V domains shown)
VH: QVQLQQPGAELVRPGASVKLSCKASGYTFTSYWINWVKQRPGHGLEWIGNIYPSDSYSNYNQKFKDKATLTVDKSSSTAYMQVSSPTSEDSAVYYCTYGSSFDYWGQGTTVTVSS
VL: DILLTQSPAILSVSPGERVSFSCRASQTIGTSIHWYQQRTNGSPRLLIKYASESISGIPSRFSGSGSGTDFTLSINSVESEDIADYYCQQSNSWPFTFGSGTKLEIK
- ka [1]: 270000 M⁻¹ s⁻¹
- kd [1]: 0.0086 s⁻¹
- human Trop-2 domains bound ([2]; defined by loss or reduction in binding on domain swapping): domain 1
- Binding to Trop-2 domain hybrid, domain 1 ([2]; domain replacement hTrop1): +
- Binding to Trop-2 domain hybrid, domain 2 ([2]; domain replacement hTrop1): −
- Binding to Trop-2 domain hybrid, domain 3 ([2]; domain replacement hTrop1): −
- Binding to Trop-2 domain hybrid, domain 4 ([2]; domain replacement hTrop1): −
- Binding to Trop-2 domain hybrid, domain 1 ([2]; domain replacement mTrop-2): +
- Binding to Trop-2 domain hybrid, domain 2 ([2]; domain replacement mTrop-2): −
- Binding to Trop-2 domain hybrid, domain 3 ([2]; domain replacement mTrop-2): −
- Binding to Trop-2 domain hybrid, domain 4 ([2]; domain replacement mTrop-2): −
- binding to human Trop-1 [3]: do not bind
- binding to mouse Trop-2 [4]: do not bind
- A431 xenograft tumor growth in vivo [5]: inhibit A431 xenograft tumor growth
- Mean tumor volume (mm3) on day 27 ([5]; Table 7C): 444.8 mm3
- TGI (Tumor growth inhibition) ([5]; Table 7C): 57%
- % positive ([6]; Table 11, 300,000 cells): 2.5%
- MFI ([6]; Table 11, 300,000 cells): 134

B2: h7E6SVG-LCQ04/K222R-vc0101: h7E6SVG K222R with light chain LCQ04 tag conjugated with AcLys-vc-PABC-0101 (conjugate)
VH: QVQLQESGPGLVKPSETLSLTCTVSGGSISSYGVHWIRQPPGKGLEWIGVIWTSGVTDYNSALMGRVTISVDTSKNQFSLKLSSVTAADTAVYYCARDGDYDRYTMDYWGQGTLVTVSS
VL: DIVMTQSPDSLAVSLGERATINCRASKSVSTSGYSYMHWYQQKPGQPPKLLIYLASNLESGVPDRFSGSGSGTDFTLTISSLQAEDVAVYYCQHSRELPYTFGQGTKLEIK
- IC50 [7]: > 267 nM
- tumor response, BxPC3 xenograft [8]: tumor regression

B3: h7E6_SVG: humanized anti-Trop-2 antibody, VL SEQ ID NO: 3, VH SEQ ID NO: 5 (antibody, V domains shown)
VH: B2 VH
VL: B2 VL
- ka [9]: 97600 M⁻¹ s⁻¹
- kd [9]: 0.000435 s⁻¹
- ka [10]: 265000 M⁻¹ s⁻¹
- kd [10]: 0.00189 s⁻¹
- % positive ([6]; Table 10, 300,000 cells): 2.4%
- MFI ([6]; Table 10, 300,000 cells): 139
- ka [11]: 170000 M⁻¹ s⁻¹
- kd [11]: 0.00069 s⁻¹

B4: h7E6SVG-LCQ03/K222R-vc0101: h7E6SVG K222R with light chain LCQ03 tag (SEQ ID NO: 78) conjugated with AcLys-vc-PABC-0101 (conjugate)
VH: B2 VH
VL: B2 VL
- IC50 [7]: > 267 nM
- tumor response, Colo205 xenograft [12]: tumor regression
